Legend:
IL-2Rβγ complex [1] = target: T1, IL-2Rβγ complex (UniProt P14784 27-551; P31785 23-369); assay: SPR; Biacore, IL-2 receptor proteins immobilised on a CM5 chip; wild-type IL-2 or variant 012 flowed over at stepwise concentrations for 120 s, then blank solution; 1:1 binding fit (steady state affinity for 001 on IL-2Rα); conditions: both partners purified
IL-2Rβγ complex [2] = target: T1, IL-2Rβγ complex; assay: cell-based or functional assay
IL-2Rαβγ complex = IL-2Rαβγ complex (UniProt P01589 22-272; P14784 27-551; P31785 23-369); assay: SPR; Biacore, IL-2 receptor proteins immobilised on a CM5 chip; wild-type IL-2 or variant 012 flowed over at stepwise concentrations for 120 s, then blank solution; 1:1 binding fit (steady state affinity for 001 on IL-2Rα); conditions: both partners purified
Sequence of IL-2Rαβγ complex (P01589 22-272, chain 1 of 3): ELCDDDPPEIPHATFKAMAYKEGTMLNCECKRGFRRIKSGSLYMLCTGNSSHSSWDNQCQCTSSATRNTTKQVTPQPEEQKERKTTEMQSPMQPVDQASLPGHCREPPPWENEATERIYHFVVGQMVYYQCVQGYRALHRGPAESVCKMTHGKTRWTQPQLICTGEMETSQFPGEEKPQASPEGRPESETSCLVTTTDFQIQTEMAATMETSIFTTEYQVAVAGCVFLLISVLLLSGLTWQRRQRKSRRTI
Sequence of IL-2Rαβγ complex (P14784 27-551, chain 2 of 3): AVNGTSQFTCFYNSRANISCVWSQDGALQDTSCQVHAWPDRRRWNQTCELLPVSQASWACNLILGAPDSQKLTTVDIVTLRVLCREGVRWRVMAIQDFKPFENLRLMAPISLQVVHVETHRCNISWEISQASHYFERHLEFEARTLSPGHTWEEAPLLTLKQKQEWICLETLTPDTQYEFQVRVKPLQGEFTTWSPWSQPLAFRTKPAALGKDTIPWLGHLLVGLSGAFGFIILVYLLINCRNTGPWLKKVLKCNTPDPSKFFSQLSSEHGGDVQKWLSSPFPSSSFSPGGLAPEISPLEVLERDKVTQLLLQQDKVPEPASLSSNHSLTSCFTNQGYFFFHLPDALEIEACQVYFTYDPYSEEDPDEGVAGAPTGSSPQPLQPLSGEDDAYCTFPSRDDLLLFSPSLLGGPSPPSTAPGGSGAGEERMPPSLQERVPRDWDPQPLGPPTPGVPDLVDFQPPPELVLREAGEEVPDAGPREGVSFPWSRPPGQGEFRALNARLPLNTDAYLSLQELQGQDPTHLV
Sequence of IL-2Rαβγ complex (P31785 23-369, chain 3 of 3): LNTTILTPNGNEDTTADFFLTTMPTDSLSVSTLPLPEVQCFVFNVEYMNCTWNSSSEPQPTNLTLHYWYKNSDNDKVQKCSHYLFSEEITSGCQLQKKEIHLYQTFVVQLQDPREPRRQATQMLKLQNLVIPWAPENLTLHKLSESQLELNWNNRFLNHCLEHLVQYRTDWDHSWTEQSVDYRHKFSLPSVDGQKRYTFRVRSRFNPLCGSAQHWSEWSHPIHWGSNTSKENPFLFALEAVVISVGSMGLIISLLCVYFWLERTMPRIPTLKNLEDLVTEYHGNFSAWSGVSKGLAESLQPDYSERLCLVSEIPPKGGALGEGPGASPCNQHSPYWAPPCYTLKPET

T1 sequence (P14784 27-551, chain 1 of 2): as the sequence (P14784 27-551, chain 2 of 3) above
T1 sequence (P31785 23-369, chain 2 of 2): as the sequence (P31785 23-369, chain 3 of 3) above

Kd (IL-2Rβγ complex [1]): 467 pM
koff (IL-2Rβγ complex [1]): 0.00106 s⁻¹
EC50 of STAT5 activation (pSTAT5) in CD8 T cells of human PBMC (Table S4) (IL-2Rβγ complex [2]): 18.6 nM
EC50 of STAT5 activation (pSTAT5) in NK cells of human PBMC (Table S4) (IL-2Rβγ complex [2]): 5.11 nM
Kd (IL-2Rαβγ complex): 575 pM
koff (IL-2Rαβγ complex): 0.000732 s⁻¹
B1: IL-2 variant 012 (ligand)
chain: PTSSSTKKTQLQLEHLLLDLQMILNGINNYKNPLRPRDLISNINVIVLELKGSETTELKHLQSLEEELKDLEEVLNLAQSKNFHTIVEFLNRWITFSQSIISTLT
notes: also called βγ-only IL-2v

Source: paper PMC11024467, “A novel dual mechanism-of-action bispecific PD-1-IL-2v armed by a “βγ-only” interleukin-2 variant” (Frontiers in Immunology, 2024)
